Assay results published in patent publication US20240368309A1 (Hoffmann-La Roche, published 2024).
Read-outs that look alike come from different tables or passages of the source. One block for each binder: values may come before it.

How the values were obtained:
[1] = biological target: T1, human CD28 on CHO cells (CHO-k1 ATCC #CCL-61 modified to stably overexpress human CD28) (human, UniProt P10747 19-220); experiment: flow cytometry, CHO-k1 cells stably overexpressing human CD28; monovalent one-armed IgG from supernatant, PE-labelled goat anti-human detection; MFI (PE) against c [nM]
T1 construct: also called CHO-k1-huCD28 cells; hu CD28

[2] = biological target: T1, human CD28 on CHO cells (CHO-k1 ATCC …); experiment: as above; remark: listed apart in the source

- binding result [1]: binds
B6: CD28(SA)_variant_13 (antibody, human IgG1, kappa, L234A L235A)
heavy: not shown
light: not shown
chain: DKTHTCPPCPAPEAAGGPSVFLFPPKPKDTLMISRTPEVTCVVVDVSHEDPEVKFNWYVDGVEVHNAKTKPREEQYNSTYRVVSVLTVLHQDWLNGKEYKCKVSNKALGAPIEKTISKAKGQPREPQVCTLPPSRDELTKNQVSLSCAVKGFYPSDIAVEWESNGQPENNYKTTPPVLDSDGSFFLVSKLTVDKSRWQQGNVFSCSVMHEALHNRFTQKSLSLSP
notes: one-armed (monovalent) hu IgG1 PG-LALA, empty Fc hole; tested from supernatant; also called P1AE3069

- binding result [1]: binds
B7: CD28(SA)_variant_19 (antibody, human IgG1, kappa, L234A L235A)
heavy: not shown
light: not shown
chain: B6 chain
notes: one-armed (monovalent) hu IgG1 PG-LALA, empty Fc hole; tested from supernatant; also called P1AE3075

- binding result [2]: binds
B8: CD28(SA)_variant_25 (antibody, human IgG1, kappa, L234A L235A)
heavy: not shown
light: not shown
chain: B6 chain
notes: one-armed (monovalent) hu IgG1 PG-LALA, empty Fc hole; tested from supernatant; also called P1AE3081

- binding result [2]: binds
B9: CD28(SA)_variant_29 (antibody, human IgG1, kappa, L234A L235A)
heavy: not shown
light: not shown
chain: B6 chain
notes: one-armed (monovalent) hu IgG1 PG-LALA, empty Fc hole; tested from supernatant; also called P1AE3085

- binding result [1]: binds
B10: CD28(SA)_variant_16 (antibody, human IgG1, kappa, L234A L235A)
heavy: not shown
light: not shown
chain: B6 chain
notes: one-armed (monovalent) hu IgG1 PG-LALA, empty Fc hole; tested from supernatant; also called P1AE3072

- binding result [2]: binds
B11: CD28(SA)_variant_26 (antibody, human IgG1, kappa, L234A L235A)
heavy: not shown
light: not shown
chain: B6 chain
notes: one-armed (monovalent) hu IgG1 PG-LALA, empty Fc hole; tested from supernatant; also called P1AE3082

- binding result [2]: binds
B12: CD28(SA)_variant_27 (antibody, human IgG1, kappa, L234A L235A)
heavy: not shown
light: not shown
chain: B6 chain
notes: one-armed (monovalent) hu IgG1 PG-LALA, empty Fc hole; tested from supernatant; also called P1AE3083

Further lines, the binder ahead of its results:

B1: CD28(SA)_variant_15 (antibody, human IgG1, kappa, L234A L235A)
heavy: not shown
light: not shown
chain: B6 chain
notes: one-armed (monovalent) hu IgG1 PG-LALA, empty Fc hole; tested from supernatant; also called P1AE3071
- binding result [1]: binds

B2: CD28(SA)_variant_11 (antibody, human IgG1, kappa, L234A L235A)
heavy: not shown
light: not shown
chain: B6 chain
notes: one-armed (monovalent) hu IgG1 PG-LALA, empty Fc hole; tested from supernatant; also called P1AE3067
- binding result [1]: binds

B3: CD28(SA)_variant_17 (antibody, human IgG1, kappa, L234A L235A)
heavy: not shown
light: not shown
chain: B6 chain
notes: one-armed (monovalent) hu IgG1 PG-LALA, empty Fc hole; tested from supernatant; also called P1AE3073
- binding result [1]: binds

B4: CD28(SA)_variant_24 (antibody, human IgG1, kappa, L234A L235A)
heavy: not shown
light: not shown
chain: B6 chain
notes: one-armed (monovalent) hu IgG1 PG-LALA, empty Fc hole; tested from supernatant; also called P1AE3080
- binding result [2]: binds

B5: CD28(SA)_variant_28 (antibody, human IgG1, kappa, L234A L235A)
heavy: not shown
light: not shown
chain: B6 chain
notes: one-armed (monovalent) hu IgG1 PG-LALA, empty Fc hole; tested from supernatant; also called P1AE3084
- binding result [2]: binds
